These results are taken from patent US20110223107A1 (ALETHIA BIOTHERAPEUTICS, published 2011).

Values joined by “and” are separate entries in the source; they are usually repeats but may differ in a detail not shown here. Identical values can stand only once.

Assay [1] addresses T1, KAAG1 (Kidney associated antigen 1), endogenous, on cancer cells and in tumour tissue (human, UniProt Q9UBP8 1-84).
T1 construct: also called KAAG1 antigen
T1 sequence: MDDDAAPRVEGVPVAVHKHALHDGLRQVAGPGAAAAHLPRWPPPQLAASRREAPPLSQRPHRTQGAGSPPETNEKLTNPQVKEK
Nature of the assay: cell-based ELISA on fixed, non-permeabilised TOV-21G cells. As to the method: (§1) KAAG1 is expressed on the surface of ovarian cancer cells. […] Following extensive washing of the cells, bound antibody was detected with HRP-conjugated anti-human IgG as a secondary antibody in a modified cell-based ELISA (see FIG. 16A). […] Additionally, the 3D3 antibody produced the strongest signal implying that the epitope targeted by this antibody was the most accessible in this assay. […] A second approach used was flow cytometry. In this case, a mouse 3D3 anti-KAAG1 antibody was incubated with SKOV-3 ovarian cancer cells at saturating conditions and following extensive washing, the bound 3D3 anti-KAAG1 antibody was detected with anti-mouse IgG conjugated to FITC in a flow cytometer.
A general note: In an ELISA, binding on a coated surface is turned into a signal by an enzyme label.

Assay [2] deals with T2, recombinant Fc-KAAG1 fusion protein (full-length KAAG1) (human, UniProt Q9UBP8 1-84, biotinylated with NHS-biotin (sites not given)).
T2 construct: also called recombinant human KAAG1; not shown: human Fc domain encoded by expression plasmid pYD5; vector-encoded residues between the Fc and the BamHI cloning site of pYD5
T2 sequence: T1 sequence
Nature of the assay: ELISA on recombinant Fc-KAAG1. As to the method:
The 96-well master plate of monoclonal preparations contained different concentrations of purified anti-KAAG1 Fabs in each well. A second stock master plate was prepared by diluting the Fabs to a final concentration of 10 μg/ml from which all subsequent dilutions were performed for ELISA measurements. To carry out the binding of Fc-KAAG1 to the monoclonal preparations, the Fc-KAAG1 was biotinylated with NHS-biotin (Pierce, Rockford, Ill.) and 10 ng/well was coated in a streptavidin 96-well plate. One nanogram of each Fab monoclonal preparation was added to each well and incubated at room temperature for 30 minutes. Bound antibody was detected with HRP-conjugated mouse anti-kappa light chain antibody in the presence of TMB liquid substrate (Sigma-Aldrich Canada Ltd., Oakville, ON) and readings were conducted at 450 nm in microtiter plate reader.
Since an antibody harboring effector functions was required, the h3D3 was assembled as a human IgG₁. ELISA-based assays were performed to directly compare the ability of the h3D3 […]. The methods used to perform these tests were as described in Example 3 using recombinant Fc-KAAG1.

The target of assay [3] is T1, KAAG1 (Kidney associated antigen 1), …. Nature of the assay: cell-based ELISA on fixed, non-permeabilised OV-90 cells. As to the method: as §1
In assay [4] the target is T3, monomeric recombinant KAAG1 (Homo sapiens (Human), UniProt Q9UBP8 1-84, limits assumed).
T3 construct: Analyte of the Biacore experiment
T3 sequence: T1 sequence
Put plainly: SPR (Biacore), antibody captured by anti-human Fc, 1:1 fit. The protocol: (§2) More precise measurements were conducted using Surface Plasmon Resonance (SPR) in a Biacore instrument. Kinetic analysis was used to compare the affinity of the chimeric 3D3 with the h3D3 as well as with hybrid antibodies encompassing different permutations of the light and heavy chains (see FIG. 18B). Briefly, anti-human Fc was immobilized on the Biacore sensor chip and chimeric or h3D3 was captured on the chip. Different concentrations of monomeric recombinant KAAG1 were injected and the data were globally fitted to a simple 1:1 model to determine the kinetic parameters of the interaction.
(SPR reads the build-up and loss of mass on a sensor chip optically.)

Assay [5] addresses T3, monomeric recombinant KAAG1. Nature of the assay: SPR (Biacore): antibody captured on immobilised anti-human Fc, monomeric recombinant KAAG1 injected, global 1:1 fit; average KD; chimeric 3D3 tabulated as 'm3D3' in FIG. 18B. The protocol:
as §2

The target is the same in assay [6]. Nature of the assay: SPR (Biacore): antibody captured on immobilised anti-human Fc, monomeric recombinant KAAG1 injected, global 1:1 fit; average KD; chimeric light + chimeric heavy chain, 'CC' in FIG. 18B. The protocol:
as §2

The target is the same in assay [7]. Nature of the assay: SPR (Biacore): antibody captured on immobilised anti-human Fc, monomeric recombinant KAAG1 injected, global 1:1 fit; average KD; chimeric light + humanized heavy chain, 'CH'. The protocol:
as §2

Assay [8] shares this target. Put plainly: SPR (Biacore): antibody captured on immobilised anti-human Fc, monomeric recombinant KAAG1 injected, global 1:1 fit; average KD; humanized light + chimeric heavy chain, 'HC'. The protocol: as §2
For assay [9] the target is unchanged. Put plainly: SPR (Biacore): antibody captured on immobilised anti-human Fc, monomeric recombinant KAAG1 injected, global 1:1 fit; average KD; humanized light + humanized heavy chain, 'HH'. As to the method:
as §2

B1: 3D3 mouse-human chimeric IgG1 anti-KAAG1 monoclonal antibody (antibody, V domains shown)
VH: EVQLQQSVAELVRPGASVTLSCKASGYIFTDYEIHWVKQTPVHGLEWIGVIDPETGNTAFNQKFKGKATLTADISSSTAYMELSSLTSEDSAVYYCMGYSDYWGQGTTLTVSS
VL: DIVMTQSPSSLAVSIGQKVTMNCKSSQSLLNSNFQKNFLAWYQQKPGQSPKLLIYFASTRESSIPDRFIGSGSGTDFTLTISSVQAEDLADYFCQQHYSTPLTFGAGTKLELKA
notes: Mouse variable regions on human kappa and human IgG1 constant regions, expressed in 293E cells; also called chimeric 3D3; 3D3 chimeric IgG1
Usually EC50 (read off the curve) stands for the concentration at which the effect is half-maximal. By Kd is commonly meant the free concentration of one partner at which half of the binding sites on the other are occupied at equilibrium, for simple one-to-one binding. What is called koff is the first-order rate constant of dissociation. For orientation: kon means a measure of how fast the partners come together. As for B1, the “EC50 (read off the curve)” value in assay [1] was around 0.6 mg/L; in assay [2], around 0.4 mg/L; in [3] it was around 0.9 mg/L. For the same molecule, the Ka in [4] was 4.5e+09 M⁻¹ and 2.71e+09 M⁻¹. In addition, the Kd in assay [4] was 0.368 nM; in [5], 0.235 nM; in assay [6], 0.271 nM. The koff in assay [4] was 0.00065 s⁻¹ and 0.00073 s⁻¹. The on-rate (kon) in [4] is 2.91e+06 M⁻¹ s⁻¹ and 1.98e+06 M⁻¹ s⁻¹.

B2: 3D3 hybrid antibody: chimeric light chain expressed with the humanized heavy chain (antibody, human IgG1, V domains shown)
VH: EVQLVQSGAEVKKPGASVKVSCKASGYIFTDYEIHWVRQAPGQGLEWMGVIDPETGNTAFNQKFKGRVTITADTSTSTAYMELSSLTSEDTAVYYCMGYSDYWGQGTLVTVSS
VL: B1 VL
With B2, in [7], the Kd amounted to 0.505 nM. In assay [4], the Ka is 1.98e+09 M⁻¹, the koff amounted to 0.00111 s⁻¹ and the kon turned out to be 2.2e+06 M⁻¹ s⁻¹.

B3: 3D3 hybrid antibody: humanized light chain expressed with the chimeric heavy chain (antibody, V domains shown)
VH: B1 VH
VL: DIVMTQSPDSLAVSLGERATINCKSSQSLLNSNFQKNFLAWYQQKPGQPPKLLIYFASTRESSVPDRFSGSGSGTDFTLTISSLQAEDVAVYYCQQHYSTPLTFGQGTKLEIKR
notes: also called HC
Take B3: in assay [4], the Ka came to 3.24e+09 M⁻¹, the koff came to 0.00073 s⁻¹ and the kon was 2.36e+06 M⁻¹ s⁻¹. In addition, the equilibrium dissociation constant (Kd) in assay [8] stood at 0.309 nM.

B4: humanized 3D3 anti-KAAG1 antibody (human IgG1) (antibody, V domains shown)
VH: B2 VH
VL: B3 VL
notes: The leader residues before them are left out; also called h3D3; HH
As for B4, in assay [2], the “EC50 (read off the curve)” value is around 0.1 mg/L. The Kd in [9] turned out to be 0.439 nM. Also, in assay [4], the Ka was 2.28e+09 M⁻¹, the koff stood at 0.00111 s⁻¹ and the on-rate (kon) was 2.53e+06 M⁻¹ s⁻¹.
